Laboratory results as given in article PMC7641760, “Evolution of a highly functional circular DNA aptamer in serum”.

Legend:
human alpha-thrombin [1] = target: T1, human alpha-thrombin (Homo sapiens, UniProt P00734;P00734 328-363;364-622); assay: EMSA; EMSA: 1x binding buffer (PBSMT pH 7.2: 137 mM NaCl, 2.68 mM KCl, 8.1 mM Na2HPO4, 1.76 mM KH2PO4, 1 mM MgCl2, 0.025% Tween-20), <50 pM 32P-DNA, 30 min; gel 10% n
[2] = target: alpha-thrombin (light; heavy chain) (Homo sapiens (Human), UniProt P00734;P00734 328-363;364-622, N-glycosylated (plasma); interchain disulfide); assay: EMSA; PBS pH 7.2, 1 mM MgCl2, 0.025% Tween-20; DNA <50 pM; settings: copies: 1;1; label: 32P
human alpha-thrombin [3] = target: T1, human alpha-thrombin; assay: competition; displaces 32P-CTBA4T (500 pM, thrombin 50 pM) at high concentration; exosite I; EMSA: 1x binding buffer (PBSMT pH 7.2: 137 mM NaCl, 2.68 mM KCl, 8.1 mM Na2HPO4, 1.76 mM KH2PO4, 1 mM MgCl2, 0.025% Tween-20), <50 pM 32P-DNA, 30 min; gel 10% n

B1: CTBA4T (structured_DNA)
DNA: ATCTCGACTAGTCATAGGGGGCGCGAACATACGCGGTTGGTGTGGTTGGCTGACAATACTCGT
modifications: circular (5'-3' ligated)
Kd (human alpha-thrombin [1]): 0.023 nM

B2: CTBA4T (structured_DNA)
DNA: B1 DNA
modifications: circular (3'-5' ligated)
Kd [2]: 0.023 nM

GGTTGGTGTGGTTGG (structured_DNA) [TBA15]
binding result (human alpha-thrombin [3]): binds

B3: CTBA4T-B1 (structured_DNA)
DNA: ATCTCGAGTCATAGGGGGCGCGAACATACGCGGTTGGTGTGGTTGGCTGACTCGT
modifications: circular (5'-3' ligated)
Kd (human alpha-thrombin [1]): 0.019 nM
